{"source": "patent US12618835B2", "about": "“Multiplex microelectrode array for detection of proteases as biomarkers” (Kansas State University Research Foundation, priority 2021, dated 2026)", "target": "T1, recombinant human cathepsin B (rhCB) (Homo sapiens, UniProt P07858)", "T1 construct": "purchased R&D Systems Inc. (Minneapolis, MN)", "experiment": "Electrochemical (ACV) proteolysis of peptide-Fc on Au MEA by activated rhCB in different buffers, Example 3", "type": "biochemical", "protocol": "Gold MEA Functionalization. The diced Au MEA chip was sonicated in acetone for 5 min to remove the photoresist protection layer, followed by rinsing with methanol and subsequently with isopropanol for 30 seconds. The Au MEA was then rinsed with deionized water and blow-dried with N2. Prior to use, the Au MEA chip was mounted in a home-made electrochemical cell described in our previous report and electrochemically cleaned by cycling voltammetry (CV) between −0.60 to 0.70 V in 0.10 M phosphate buffer (0.038 M NaH2PO4 and 0.061 M Na2HPO4, pH=7.4) vs. a mercury/mercurous sulfate reference electrode (MSE) filled with a saturated K2SO4 solution (CH Instruments, Austin, TX). The cleaned Au MEA was then rinsed with deionized water and blow-dried with N2. All electrochemical protease detection measurements in this study used an in-house synthesized hexapeptide H-15 attached with a ferrocene (Fc) redox tag, as the substrate (referred to as “peptide-Fc” in this study). […] To functionalize the MEA with this peptide-Fc substrate, the chip was first incubated in 1.0 mM 6-mercapto-1-hexanol mixed with 0.2 mM 6-mercapto-1-hexanoic acid in deionized water for 40 min to form a close-packed self-assembled monolayer (SAM) due to thiol adsorption on Au surface. The formed alkanethiol layer serves as an insulator to reduce the background current while providing a ratio of about 1:5 between —COOH and —OH groups at the top surface. The electrode was then incubated in 2.0 mM peptide-Fc substrate mixed with 0.2 g/L 1-ethyl-3-(3-dimethylaminopropyl)carbodiimide (EDC) and 0.2 g/L N-hydroxysulfosuccinimide (Sulfo-NHS) as coupling agents for 2 hours at room temperature to form amide bonds between the amine group in the peptide-Fc substrate and the carboxylic acid group on the SAM surface. […] The functionalized chip was rinsed with deionized water for 30 seconds to remove the physically adsorbed molecules.\nElectrochemical Experiments. Electrochemical experiments were performed on a specially designed electrochemical cell mounted on a large copper block for temperature control by circulating thermostatic silicone liquid through the internal channels. The thermal circulator (Julabo, Allentown, PA) was set to achieve a temperature of 38.6° C. Two buffer solutions, 0.5×PB (pH=7.4) and 25 mM MES (pH=5.0), were used. In some experiments, the rhCB was activated by incubation in 25 mM MES buffer (pH=5.0) containing 5 mM DTT for 15 min. […] Fc signal on the Au surface was detected by alternating current voltammetry (ACV) with an AC frequency of 300 Hz and a voltage amplitude of 100 mV on a DC ramp from −0.45 V to 0.20 V vs. MSE. Electrochemical measurements were performed using an IVIUM n-Stat potentiostat (Eindhoven, The Netherlands), which allows measurement of up to ten independent working electrodes simultaneously versus a common MSE reference electrode and a common Pt coil counter electrode.\nPrinciple of the Electrochemical Detection of Protease Activity. The sensing principles are described in Example 1. As shown in the cyclic voltammogram (CV) in FIG. 27, the Fc tag in the peptide-Fc functionalized at the Au microelectrode surface can be oxidized into ferrocenium (Fc^+), giving a pair of well-defined redox waves centered at −0.15 V (vs. MSE). These peaks disappeared after the peptide-Fc substrate was cleaved by proteolysis. The surface concentration of peptide-Fc substrate ΓSs can be derived from the integrated area under the oxidation peak to give ΓSs=3.1 pmol/cm^2, corresponding to an average nearest-neighbor distance of 7.9 nm between the peptide-Fc. This low density allows easy access by the protease. As further shown in FIG. 28, the weak faradaic signal can be amplified using ACV, i.e., applying an AC voltage on top of a DC potential ramp from −0.45 V to 0.20 V (vs. MSE). […]", "note": "Where no end group is shown, it is not given here. [ ]: non-standard residue; d: D form. The star is where a group is joined. aminomethylferrocene = [Fe+2].c1cc[c-](CN*)c1.c1cc[cH-]c1; Ava = NCCCCC(=O)O", "data": [{"substance": "H2N-(CH2)4-CO-Pro-Leu-Ala-Phe-Val-Ala-NH-CH2-Fc ([Ava]PLAFVA-aminomethylferrocene) [Peptide H-15]", "values": [{"measurement": "inverse decay constant (1/τ)", "setting": "1.0 nM activated cathepsin B, 0.2×PBS pH=7.4", "value": "(7.65±0.42)×10^−4 s^−1"}, {"measurement": "average measured activity (1/τ)", "setting": "1.0 nM activated cathepsin B, 0.5×PB pH=7.4, 8 channels", "value": "(42.1±3.7)×10^−4 s^−1"}, {"measurement": "inverse decay constant (1/τ)", "setting": "1.0 nM activated cathepsin B, 0.5×PBS pH=7.4", "value": "(11.44±0.64)×10^−4 s^−1"}, {"measurement": "inverse decay constant (1/τ)", "setting": "1.0 nM activated cathepsin B, 1×PBS pH=7.4", "value": "(4.2±1.1)×10^−4 s^−1"}, {"measurement": "activity in 0.5×PB relative to 25 mM MES buffer", "setting": "1.0 nM activated cathepsin B, same Au MEA chip", "value": "~40", "unit": "times"}, {"measurement": "LOD of activity", "setting": "0.5×PB, 3σblank+(1/τ)blank", "value": 0.000849, "unit": "s⁻¹"}, {"measurement": "LOD of cathepsin B concentration", "setting": "0.5×PB, 3σblank/m", "value": "57.1 ± 0.41", "unit": "pM"}, {"measurement": "saturated 1/τ value", "setting": "rhCB concentration above 1.0 nM, 0.5×PB", "value": "about 45×10^−4 s^−1"}]}]}
